Test system: MS2 coat protein
Experiment: apparent KD of MS2 coat protein; designed switch direction (-1 OFF switch, 1 ON switch): -1; higher = weaker reporter binding
Summary of the method: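 Each step of the titration lasted 0.8–1.5 h at the lowest concentration and 10–20 min at the highest. The protein, SNAP-549-labelled MS2 coat protein, went from 0.7 or 1.5 nM doubling to 3 µM over RNA switches transcribed on Illumina chips by stalled E. coli RNA polymerase. Normalised cluster fluorescence was curve-fitted, and the per-design median over clusters is given as apparent KD.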

[1] = input ligand: microRNA oligo, concentration not stated
[2] = Eterna round: R95, input ligand: microRNA oligo, concentration not stated
[3] = Eterna round: R95, input ligand: FMN 200 uM
[4] = Eterna round: R95, input ligand: none

| Sequence | apparent KD of MS2 coat protein (input ligand: FMN 200 uM) | apparent KD of MS2 coat protein [1] | apparent KD of MS2 coat protein (input ligand: none) | apparent KD of MS2 coat protein [2] | apparent KD of MS2 coat protein [3] | apparent KD of MS2 coat protein [4] |
| --- | --- | --- | --- | --- | --- | --- |
| UCAAUUUUGACAGGAUAUAGUUUUUGUUUCUCUCUAGAAGGGUCUGUGUACAUGAGGAUCACCCAUGUUCUUCUUAUUUAUAUU [JR_ExcNG1_Sub014] (Eterna round: R96, puzzle: Exclusion NG 1) | 28.4 nM | 28.6 nM | 36.7 nM |  |  |  |
| UUUAUGUCAGGAUAUGAGUAGUAGAACAAUAGUACUACUACUCAGAAGGGACAUGAGGAUCACCCAUGUUCCUC [Fiskers Ex 4 Super stable 44 mod 20] (puzzle: Exclusion 4) |  |  |  | 16.7 nM |  |  |
| CAUGAUCUUCGGAUCAUGGACAUGAGGAUCACCCAUGUCACGAGCAGAUCUUCAUGCAAGCUUUUUGCUCGUCUUAU [Sensor v3 - Turn-off variant 1 - 38] (puzzle: Sensor v3, turn-off variant 1) |  |  |  | 405 nM | 28 nM | 29.8 nM |
| CAAGCUUUGCGAGGAUAUGAUGGCCUAUAUGCCUCAGAAGGCGCAGAUACUUGAGGAUCACCCAAGUGAUGCAAAUACGAAAAU [Mutated MS2 EX1.17] (Eterna round: R96, puzzle: Exclusion NG 1) | 71.3 nM | 17.4 nM | 20 nM |  |  |  |
| GUCUUGAUAGGAUAUACAUGAGGAUCACCCAUGUCCCACCCGUUACCUCUGACCCUAUGUAGAAGGAUCGUCUG [Exy#18] (Eterna round: R97, puzzle: Exclusion 3) | 30.4 nM |  | 35.5 nM |  |  |  |
| GUUUGCGCAGGAUAUACAUGAGGAUCACCCAUGUGAGAGAAAUAAGUGAGGAAGAAAAGUAGAAGGGCGUGACG [Mat - Exclusion 3 - Mod of Salish D71] (puzzle: Exclusion 3) |  |  |  | 34 nM | 171 nM | 42.8 nM |
| UUCCUCUCUUCUCUGUCUCACAUGAGGAUCACCCAUGUAACAUAGGAUAUGCUUGGUAUUUAAAUGCAGAAGGAUGUUAGUAUU [JR_ExcNG3_Sub082] (Eterna round: R96, puzzle: Exclusion NG 3) | 82.9 nM | 22.4 nM | 30.2 nM |  |  |  |
| GCCGAUUAAGUCAGGAUAUACCUAUGGAUACAUAGGUAGAAGGGACAUGAGGAUCACCCAUGUGCCUCAACGGC [Fiskers BMX 4 - 18] (puzzle: Brourd's mod of Exclusion 4) |  |  |  | 18.9 nM | 71.7 nM | 22.7 nM |
| CACAAGCUUUUUUGUUGCUUUUUAGUUGGUGUGUGAUUUACAUGAGGAUCACCCAUGUUAUUGAUGCUCGAUCUUUU [JR_SV3TOV2_Sub082] (puzzle: Sensor v3, turn-off variant 2) |  |  |  | 143 nM | 71.1 nM | 97.3 nM |
| GGAUCGAAUGUGAGGAUAUGCUGGUCCUUGGAUCAGCAGAAGGCACAUGAGGAUCACCCAUGUGAUAUCGAUCC [Eli bmx4 4.71] (Eterna round: R97, puzzle: Brourd's mod of Exclusion 4) | 443 nM |  | 89.2 nM |  |  |  |
| UUUUAACAUGAGGAUCACCCAUGUGAGGAUAUCGAAAUUUAUAUUAAUAUUAAUUAUACGAGAAGGCACAUUUU [JMF 30] (puzzle: Exclusion 1) |  |  |  | 84 nM |  |  |
| GUAUAUAGUGUGAGGAUAUGCUGGUCCUUGGAUCAGCAGAAGGCACAUGAGGAUCACCCAUGUAGUUAAAUAUA [Mat - Exclusion 4 - JL Mod - D20] (puzzle: Brourd's mod of Exclusion 4) |  |  |  | 30.1 nM |  |  |
| UCGGCGCGAGGAUAUACGUUUGCUUUUUUGUGUCGUUGCGUACAUGAGGAUCACCCAUGUAGAAGGCGCGCCGC [Apr-15 SS2-24] (puzzle: Exclusion 2) |  |  |  | 16 nM |  |  |
| ACGUACCUAGGAUAUACAUGGCCACAUGAUGCCAAGGAACAACUUGAGGAUCACCCAAGUAGAAGGAGGAAAAG [Riberace] (Eterna round: R97, puzzle: Exclusion 2) | 78.1 nM |  | 73.4 nM |  |  |  |

Source: the supplement of paper PMC9170038
